From US7521477B2, “Vitamin C derivatives with peptide, preparation method thereof and composition comprising the same” (Peptron Co., Ltd., priority 2003, dated 2009)
Peptide text beside a SMILES is read from it. * marks the point of attachment. X1 = O=C(CCC(=O)*)OC[C@H](O)[C@H]1OC(=O)C(O)=C1O

Legend:
[1] = system: human normal fibroblasts, B16 melanocytes and HaCaT cells; test: Cytotoxicity, MTT assay; format: cell-based; conditions: concentration of 5 mM
[2] = system: rabbits; test: Skin irritation test (patch test); format: in vivo; conditions: 0.5 ml of 1% in 0.01M PBS, 24 hrs patch, read 24 hrs and 72 hrs
Procedure: 0.5 ml of 1% compound II-4 in 0.01M PBS was applied to each hairless area (2.5 cm×2.5 cm) of the back of rabbits for 24 hrs once. Each of the treated sites was covered with a single sheet of gauge (10 cm×10 cm) to prevent loss of the test compound by contact and then an impermeable and unreactive solid film to prevent evaporation of the test compound. Then, the treated site was bound with an elastic bandage while not disturbing behavior of the rabbits, and the bandage was then held in place by a paper tape. 24 hrs and 72 hrs after application of the test compound, skin irritation was investigated.

[3] = system: eyes of rabbits; test: Ocular irritation test; format: in vivo, New Zealand White Rabbit; conditions: 0.1 ml of 1% in 0.01M PBS
Procedure: The compound II-4 was determined whether inducing ocular irritation or evaluated for the degree of ocular irritation. The compound II-4 was applied to the eyes of rabbits (New Zealand White Rabbit, NZW).
0.1 ml of 1% compound II-4 in 0.01M PBS was applied to the eyes of the rabbits. That is, the test compound was applied to one eye (right) of each of nine rabbits in an amount of 0.1 ml/head according to the standard criteria for toxicity test of pharmaceutical and medicinal substances (a publication by Korean Food & Drug Administration, Vol. 1999-61, Dec. 22, 1999). After application of the test compound, the treated eyes of the rabbits were maintained at a state of being closed for about one second to prevent loss of the applied test compound. Then, the degree of damage in the cornea, the iris and the conjunctiva was investigated.

[4] = system: male Hartley guinea pigs; test: Phototoxicity test; conditions: guinea pig, in vivo
Procedure: Each of the test samples was applied to the skin of guinea pigs, and the guinea pigs were exposed to ultraviolet A (UVA) radiation. Then, potency to induce phototoxicity was evaluated. Induction of phototoxicity, which is an abnormal response of the skin to a photo-stimulus such as ultraviolet or visible light, occurs non-immunologically by a chemical. Unlike the allergic response, the degree of phototoxicity can be expected by sufficient intensity of radiation and drugs.
CP and 8-MOP were prepared at a final concentration of 10% in DMSO and then diluted to 1%. Each of guinea pigs was fixed on a fixing plate, and the skin of the guinea pig was covered with 50 μl of each of the test samples. Then, the right area of the skin was not exposed to UV light, and the left area of the skin was exposed to UVA light (320 to 380 nm) of 15 J/cm^2, which was irradiated in a distance of about 10 cm for about 2 hrs. 24 hrs, 48 hr and 72 hrs after UVA irradiation, photosensitization in the treatment group was evaluated in comparison with that in the positive control groups.

[5] = Toxicity test upon single oral administration; format: in vivo; conditions: both sexes, mouse, in vivo, 2000 mg/kg; single oral administration, male and female mice; read-out: Lethal dose
Procedure: (§1) The compound II-4 was evaluated for safety upon single oral administration. The compound II-4 was orally administered to five male and five female mice (SamtakoBioKorea Co. Ltd.) in a single dose of 2,000 mg/10 ml/kg. As a control, five male and five female mice were orally administered once with 0.1 M PBS of 10 ml/kg. During 14 days after administration, death, general pathogenic symptoms and change in body weight were not observed.

[6] = system: mice; test: Toxicity test upon single oral administration; format: in vivo; conditions: single oral dose of 2,000 mg/10 ml/kg, 14 days, male and female mice
Procedure: as §1

[7] = system: male Hartley guinea pigs; test: Photosensitization test (Adjuvant & Strip method); format: in vivo; conditions: guinea pig, in vivo
Procedure: A photosensitization test for the compound II-4 was carried out according to an Adjuvant & Strip method using male Hartley guinea pigs. After four sites to be sensitized were selected at the cervical and dorsal skin of the guinea pigs, an emulsion of WFI and FCA were intradermally injected to each of the selected sites. The sensitized sites were stripped only in a degree of inducing weak erythema, and covered with 0.01 PBS (excipient group), the compound II-4 (test group) and CP (chlorpromazine; positive control group) in a non-occlusive manner. After two hours, long wave-length UV light of about 10 J/cm^2 was irradiated to the test substance-applied sites. 24 hrs, 48 hrs and 72 hrs after UV irradiation, signs of photosensitization were investigated.

[8] = system: male Hartley guinea pigs; conditions: guinea pig, in vivo
Procedure: Two weeks after secondary sensitization, topical challenge was carried out, as follows. […] Skin reading was made after removal of the patches.

Question: Which results are given for `C[C@@H](O)[C@H](NC(=O)[C@H](CCCCN)NC(=O)CCC(=O)OC[C@H](O)[C@H]1OC(=O)C(O)=C1O)C(=O)N[C@H](C(=O)N[C@@H](CCCCN)C(=O)N[C@@H](CO)C(=O)O)[C@@H](C)O` [II-4, 6-(succinyl-lysyl-threonyl-threonyl-lysyl-serine(SEQ ID NO:1))ascorbic acid] (X1-KTTKS-OH)?
Answer: Cytotoxicity [1]: did not showed cytotoxicity; Skin irritation [2]: very safe upon application to the skin; Index of Acute Ocular Irritation (I.A.O.I) [3]: zero; Conjunctiva redness and chemosis ([3]; day 1 to day 7): no sign of conjunctiva redness and chemosis was observed; Evaluation [4]: Practically non-irritating; Mean score [4]: 0; Phototoxicity (conclusion) [4]: rarely have phototoxicity; Total score/Site No [4]: 0 + 0/10; Total score/Site No. [4]: 0 + 0/10; LD50 at 336 h [5]: > 2000 mg/kg; Death, general pathogenic symptoms and change in body weight [6]: not observed; Mean score [7]: (0 + 0)/5; Photosensitization index [7]: 0; Photosensitizer (conclusion) [7]: not a photosensitizer; Stimulation index [7]: 0; Sensitization class [8]: I; Sensitization rate (%) [8]: 0%; Sensitization score (total hrs) [8]: 0; Skin reaction in induced regions [8]: no skin reaction was observed; sensitization class [8]: I; skin irritation rate [8]: 0%
